Target: thiolated streptavidin (ProteinMods) (UniProt P22629)
Sequence of UniProt P22629 (P22629 whole entry, looked up): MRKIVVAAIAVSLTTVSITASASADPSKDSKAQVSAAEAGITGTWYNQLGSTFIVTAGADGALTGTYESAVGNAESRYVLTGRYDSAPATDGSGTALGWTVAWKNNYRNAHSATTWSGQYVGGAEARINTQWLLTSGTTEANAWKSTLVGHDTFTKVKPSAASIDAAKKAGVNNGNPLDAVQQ

Substance: Gen II Φ29 DNA polymerase (D12A/D66A, biotinylated Avitag at the N terminus and second Avitag between E279 and D280)
- highest peak of the single-molecule conductance distribution (STM, 4.5 nm gap): The 3 nS peak observed in FIG. 14B is now absent
